What was measured:
[1] = target: T1, isolated DII of serum albumin (UniProt P02768 211-403, limits assumed); assay: DII binder column of the clone screening
T1 construct: domain: DII

human serum albumin [2] = target: T2, human serum albumin (human, UniProt P02768 25-609); assay: SPR (Biacore), off-rate pH 7.4 over pH 5.5
T2 construct: also called HSA

human serum albumin [3] = target: T2, human serum albumin; assay: SPR (Biacore), VHH clone, pH 5.5
human serum albumin [4] = target: T2, human serum albumin; assay: SPR (Biacore), VHH clone, pH 7.4
[5] = target: T3, cynomolgus monkey serum albumin (cynomolgus monkey, UniProt A2V9Z4 25-608); assay: SPR (Biacore 3000), albumin on chip, Fc-ABDEG fusion
T3 construct: also called cyno albumin; CSA

human serum albumin [6] = target: T2, human serum albumin; assay: SPR (Biacore 3000), HSA on chip, Fc-ABDEG fusion, ratio of R0
[7] = target: T3, cynomolgus monkey serum albumin; assay: SPR (Biacore 3000), cyno albumin on chip, Fc-ABDEG fusion, ratio of R0
[8] = target: T3, cynomolgus monkey serum albumin; assay: SPR (Biacore 3000), cyno albumin on chip, Fc-ABDEG fusion, pH 5.5
[9] = target: T3, cynomolgus monkey serum albumin; assay: SPR (Biacore 3000), cyno albumin on chip, Fc-ABDEG fusion, pH 7.4
human serum albumin [10] = target: T2, human serum albumin; assay: SPR (Biacore 3000), HSA on chip, Fc-ABDEG fusion, pH 7.4
human serum albumin [11] = target: T2, human serum albumin; assay: SPR (Biacore 3000), HSA on chip, Fc-ABDEG fusion, pH 5.5
[12] = target: T3, cynomolgus monkey serum albumin; assay: species reactivity, screening by ELISA and Biacore

Row | Binder | R0 5.5/7.4 (human serum albumin [6]) | R0 pH 5.5 [8] [RU] | R0 pH 7.4 [9] [RU] | R0 pH 7.4 (human serum albumin [10]) [RU] | R0 pH 5.5 (human serum albumin [11]) [RU] | other results
1 | 2C10 (VHH) VHH: QLQLVESGGGLVQAGGSLRLSCAASGRTFSSYAMGWFRQAPGKEREFVAVISWSGGSTYYADSVKGRFTISGDNAKNTVYLQMNSLKPEDTAVYYCATEGPKWEPYNGIYSPADFGSWGQGTQVTVSS | – | – | – | – | – | binding result [1]: no binding; Ratio Kd (human serum albumin [2]): 1.3; Kd (human serum albumin [3]): 49.3 nM; koff (human serum albumin [3]): 0.0045 s⁻¹; koff (human serum albumin [4]): 0.0056 s⁻¹
2 | 2H11-v16 fused at the C-terminus of Fc-ABDEG (two-armed Fc-ABDEG-20GS-Cterm fusion) (Fc fusion, not shown: a dimerising Fc or GST; large carriers; small tags and cut ends) VHH: ELQVVESGGGLVQAGGSLRLSCAASGRTFRSNTMGWFRQAPGKEREFVAAITWSGGTTYYADSVKGRFAISGDNAKNTVYLQMNSLKPEDTAVYYCAAEGPKWEPWNGIYHPADAGSWGQGTQVTVSS | – | – | – | – | – | binding result [5]: no binding
3 | 2H11-v12 fused at the C-terminus of Fc-ABDEG (two-armed Fc-ABDEG-20GS-Cterm fusion) (Fc fusion, not shown: a dimerising Fc or GST; large carriers; small tags and cut ends) VHH: ELQVVESGGGLVQAGGSLRLSCAASGRTFRSNTMGWFRQAPGKEREFVAAITWSGGTTYYADSVKGRFAISGDNAKNTVYLQMNSLKPEDTAVYYCAAEGPKWEPWNGIAHPADFGSWGQGTQVTVSS | – | – | – | – | – | binding result [5]: no binding
4 | 2H11-v3 fused at the C-terminus of Fc-ABDEG (two-armed Fc-ABDEG-20GS-Cterm fusion) (Fc fusion, not shown: a dimerising Fc or GST; large carriers; small tags and cut ends) VHH: ELQVVESGGGLVQAGGSLRLSCAASGRTFRSNTMGWFRQAPGKEREFVAAITWSGGTTYYADSVKGRFAISGDNAKNTVYLQMNSLKPEDTAVYYCAAEGAKWEPWNGIYHPADFGSWGQGTQVTVSS | – | – | – | – | – | binding result [5]: no binding
5 | 2H11-v15 fused at the C-terminus of Fc-ABDEG (two-armed Fc-ABDEG-20GS-Cterm fusion) (Fc fusion, not shown: a dimerising Fc or GST; large carriers; small tags and cut ends) VHH: ELQVVESGGGLVQAGGSLRLSCAASGRTFRSNTMGWFRQAPGKEREFVAAITWSGGTTYYADSVKGRFAISGDNAKNTVYLQMNSLKPEDTAVYYCAAEGPKWEPWNGIYHPAAFGSWGQGTQVTVSS | – | – | – | – | – | binding result [5]: no binding
6 | 2H11-v9 fused at the C-terminus of Fc-ABDEG (two-armed Fc-ABDEG-20GS-Cterm fusion) (Fc fusion, not shown: a dimerising Fc or GST; large carriers; small tags and cut ends) VHH: ELQVVESGGGLVQAGGSLRLSCAASGRTFRSNTMGWFRQAPGKEREFVAAITWSGGTTYYADSVKGRFAISGDNAKNTVYLQMNSLKPEDTAVYYCAAEGPKWEPWAGIYHPADFGSWGQGTQVTVSS | – | – | – | – | – | binding result [5]: no binding
7 | 2H11-v8 fused at the C-terminus of Fc-ABDEG (two-armed Fc-ABDEG-20GS-Cterm fusion) (Fc fusion, not shown: a dimerising Fc or GST; small tags and cut ends) VHH: ELQVVESGGGLVQAGGSLRLSCAASGRTFRSNTMGWFRQAPGKEREFVAAITWSGGTTYYADSVKGRFAISGDNAKNTVYLQMNSLKPEDTAVYYCAAEGPKWEPANGIYHPADFGSWGQGTQVTVSS | – | – | – | – | – | binding result [5]: no binding
8 | 11C03 CDR1-V2 fused at the C-terminus of Fc-ABDEG (Fc fusion, not shown: a dimerising Fc or GST; small tags and cut ends) QLQVVESGGGLVQAGGSLRLSCAASERTFVAAPMGWFRQAPEKEREFVAGISWFAGATTDYADSVEGRFTISRDNAKNTAYLQMNNLKPEDTAVYYCAISHQLPGGRPGRDMDSYSYWGHGTQVTVSS | 19 | 37.8 | 2.11 | 5.82 | 108 | R0 5.5/7.4 [7]: 17.9
9 | 11C03 CDR1-V3 fused at the C-terminus of Fc-ABDEG (Fc fusion, not shown: a dimerising Fc or GST; small tags and cut ends) QLQVVESGGGLVQAGGSLRLSCAASERTFVAYAMGWFRQAPEKEREFVAGISWFAGATTDYADSVEGRFTISRDNAKNTAYLQMNNLKPEDTAVYYCAISHQLPGGRPGRDMDSYSYWGHGTQVTVSS | 21 | 103 | 5.2 | 5.1 | 109 | R0 5.5/7.4 [7]: 19.8
10 | 11C03 CDR2-V10 fused at the C-terminus of Fc-ABDEG (Fc fusion, not shown: a dimerising Fc or GST; small tags and cut ends) QLQVVESGGGLVQAGGSLRLSCAASERTFVAYPMGWFRQAPEKEREFVAGISWFAGATADYADSVEGRFTISRDNAKNTAYLQMNNLKPEDTAVYYCAISHQLPGGRPGRDMDSYSYWGHGTQVTVSS | 16 | 105 | 5.65 | 8.6 | 136 | R0 5.5/7.4 [7]: 18.6
11 | 11C03 CDR2-V5 fused at the C-terminus of Fc-ABDEG (Fc fusion, not shown: a dimerising Fc or GST; small tags and cut ends) QLQVVESGGGLVQAGGSLRLSCAASERTFVAYPMGWFRQAPEKEREFVAGISWAAGATTDYADSVEGRFTISRDNAKNTAYLQMNNLKPEDTAVYYCAISHQLPGGRPGRDMDSYSYWGHGTQVTVSS | 12 | 0 | 1.1 | 1.06 | 12.3 | –
12 | 11C03 CDR2-V12 fused at the C-terminus of Fc-ABDEG (Fc fusion, not shown: a dimerising Fc or GST; small tags and cut ends) QLQVVESGGGLVQAGGSLRLSCAASERTFVAYPMGWFRQAPEKEREFVAGISWFAGATTDAADSVEGRFTISRDNAKNTAYLQMNNLKPEDTAVYYCAISHQLPGGRPGRDMDSYSYWGHGTQVTVSS | 26 | 26 | 1.35 | 1.5 | 38.7 | R0 5.5/7.4 [7]: 19.3
13 | 11C03 CDR2-V7 fused at the C-terminus of Fc-ABDEG (Fc fusion, not shown: a dimerising Fc or GST; small tags and cut ends) QLQVVESGGGLVQAGGSLRLSCAASERTFVAYPMGWFRQAPEKEREFVAGISWFAAATTDYADSVEGRFTISRDNAKNTAYLQMNNLKPEDTAVYYCAISHQLPGGRPGRDMDSYSYWGHGTQVTVSS | 4 | 0 | 1.09 | 1.12 | 4.57 | –
14 | 11C03 CDR2-V2 fused at the C-terminus of Fc-ABDEG (Fc fusion, not shown: a dimerising Fc or GST; small tags and cut ends) QLQVVESGGGLVQAGGSLRLSCAASERTFVAYPMGWFRQAPEKEREFVAGASWFAGATTDYADSVEGRFTISRDNAKNTAYLQMNNLKPEDTAVYYCAISHQLPGGRPGRDMDSYSYWGHGTQVTVSS | 12 | 5.22 | 1.2 | 1.22 | 15.1 | R0 5.5/7.4 [7]: 4.35
15 | 11C03 CDR2-V3 fused at the C-terminus of Fc-ABDEG (Fc fusion, not shown: a dimerising Fc or GST; small tags and cut ends) QLQVVESGGGLVQAGGSLRLSCAASERTFVAYPMGWFRQAPEKEREFVAGIAWFAGATTDYADSVEGRFTISRDNAKNTAYLQMNNLKPEDTAVYYCAISHQLPGGRPGRDMDSYSYWGHGTQVTVSS | 28 | 54.2 | 2.6 | 2.4 | 68.5 | R0 5.5/7.4 [7]: 20.8
16 | 11C03 CDR2-V4 fused at the C-terminus of Fc-ABDEG (Fc fusion, not shown: a dimerising Fc or GST; small tags and cut ends) QLQVVESGGGLVQAGGSLRLSCAASERTFVAYPMGWFRQAPEKEREFVAGISAFAGATTDYADSVEGRFTISRDNAKNTAYLQMNNLKPEDTAVYYCAISHQLPGGRPGRDMDSYSYWGHGTQVTVSS | 15 | 0 | 2.77 | 0.826 | 12.3 | –
17 | 4G12 (VHH) VHH: QLQLVESGGGLVQAGGSLRLSCVASGRSFSTYGMGWFRQAPGAEREFAAAINWKGDRYYADSVKGRFTISRDNAKNTVFLEMNSLKPEDTGVYYCAADSDGSAFSRRLEYDYWGQGTQVTVSS | – | – | – | – | – | binding result [1]: no binding; Ratio Kd (human serum albumin [2]): 1.8; binding result [12]: binds; Kd (human serum albumin [3]): 12.4 nM; koff (human serum albumin [3]): 0.0019 s⁻¹; koff (human serum albumin [4]): 0.0033 s⁻¹
18 | 1E04 (VHH) VHH: QLQLVESGGGLVQTGGSLRLSCAASGRTFSNYNAGWFRQVPGKEPEFVAAINWSGGTTYYADSVKGRFTISRDNAKNTVYLQMNSLKPEDTAVYYCAADPDWSILNPREYDYWGQGTRVTVSS | – | – | – | – | – | binding result [1]: no binding; Ratio Kd (human serum albumin [2]): 2.1; binding result [12]: binds; Kd (human serum albumin [3]): 55.2 nM; koff (human serum albumin [3]): 0.0026 s⁻¹; koff (human serum albumin [4]): 0.0054 s⁻¹
19 | 2H11 (VHH, also called 2H11 parental (VHH)) VHH: ELQVVESGGGLVQAGGSLRLSCAASGRTFRSNTMGWFRQAPGKEREFVAAITWSGGTTYYADSVKGRFAISGDNAKNTVYLQMNSLKPEDTAVYYCAAEGPKWEPWNGIYHPADFGSWGQGTQVTVSS | – | – | – | – | – | Ratio Kd (human serum albumin [2]): 81.9; Kd (human serum albumin [3]): 6.84 nM; koff (human serum albumin [3]): 0.00063 s⁻¹; koff (human serum albumin [4]): 0.052 s⁻¹
20 | 2B03 (VHH) VHH: QLQLVESGGGLVQAGGSLRLSCAASGRAISSYVMAWFRQAPGKEREFVTSINWSGGSTYYAHSVKGRFTISRDNAKNTVYLQMNTLKPEDTAVYYCAADLYGLGYEVMSYDYWGQGTQVTVSS | – | – | – | – | – | binding result [1]: no binding; Ratio Kd (human serum albumin [2]): 8.7; binding result [12]: binds; Kd (human serum albumin [3]): 16.6 nM; koff (human serum albumin [3]): 0.0029 s⁻¹; koff (human serum albumin [4]): 0.025 s⁻¹
21 | 2A10 (VHH) VHH: EVQLVESGGGLVQAGGSLRLSCAASGRTFSSYAMGWFRQAPGKEREFVATINWSGGSTYYADSVKGRFTISRDNAKNTVYLQMNSLKPEDTAVYYCAADLYGPGFVLSMEYDYWGQGTQVTVSS | – | – | – | – | – | binding result [1]: no binding; Ratio Kd (human serum albumin [2]): 3.3; binding result [12]: binds; Kd (human serum albumin [3]): 96.9 nM; koff (human serum albumin [3]): 0.0034 s⁻¹; koff (human serum albumin [4]): 0.011 s⁻¹

Reference: US20250223342A1 (ARGENX, published 2025)
